Measurements published in article PMC10040528, “A [4Fe-4S] cluster resides at the active center of phosphomevalonate dehydratase, a key enzyme in the archaeal modified mevalonate pathway” (Frontiers in Microbiology, 2023).

Columns and labels:
[1] = substrate: C/C(=C\C(=O)O)CCOP(=O)(O)O; experiment: coupled colorimetric assay (MVA5P kinase/pyruvate kinase/pyruvate oxidase/peroxidase, resorufin), Michaelis-Menten fit; format: biochemical, Aeropyrum pernix; settings: reverse reaction (hydration of tAHMP to MVA5P), 70 mM Tris-HCl pH 7.0, 70 °C, anaerobic, reconstructed His-tagged enzyme
Text: coupled colorimetric assay (MVA5P kinase/pyruvate kinase/pyruvate oxidase/peroxidase, resorufin), Michaelis-Menten fit on […]

[2] = target: T1, Aeropyrum pernix phosphomevalonate dehydratase (ApPMDh) large subunit Ape_2087.1, polyhistidine-tagged (Aeropyrum pernix, UniProt Q9YA51 1-402); experiment: pull-down; polyhistidine-tagged large subunit co-expressed with untagged small subunit in E. coli; heat-treated (60°C, 30 min) cell extract on Histrap FF, anaerobic; 20 mM sodium phosphate pH 7.4, 500 mM NaCl, 20 mM imidazole; eluted with 150 mM imidazole; subunit ratio from 15% SDS-PAGE and ImageJ; settings: partners not purified
T1 construct: large subunit Ape_2087.1 of phosphomevalonate dehydratase (type IIb aconitase X), Aeropyrum pernix; also called (His)6-Ape2087.1; large subunit of ApPMDh; source: E. coli Rosetta2 (DE3), pET-HisApPMDh, co-expressed with Ape_2089; heat-treated cell extract, Histrap FF; not shown: polyhistidine ((His)6), N-terminal, kept
T1 sequence (looked up): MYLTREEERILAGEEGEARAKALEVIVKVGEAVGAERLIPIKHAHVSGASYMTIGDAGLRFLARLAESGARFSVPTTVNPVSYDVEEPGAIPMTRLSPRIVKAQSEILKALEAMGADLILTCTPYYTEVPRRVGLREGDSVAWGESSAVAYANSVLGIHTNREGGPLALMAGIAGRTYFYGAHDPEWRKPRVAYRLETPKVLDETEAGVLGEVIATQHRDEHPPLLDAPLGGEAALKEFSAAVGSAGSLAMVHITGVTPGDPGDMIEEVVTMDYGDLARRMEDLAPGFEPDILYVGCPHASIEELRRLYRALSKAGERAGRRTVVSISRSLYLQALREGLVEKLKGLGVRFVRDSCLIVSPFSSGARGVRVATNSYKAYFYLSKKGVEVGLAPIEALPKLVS

[3] = target: T1, Aeropyrum pernix phosphomevalonate …; experiment: pull-down; as a1, but from a mixture of about equal amounts of cells co-expressing both subunits and cells expressing only untagged Ape_2089 (excess small subunit supplied); subunit ratio from SDS-PAGE and ImageJ; settings: partners not purified

B1: ApPMDh (Aeropyrum pernix phosphomevalonate dehydratase) (Aeropyrum pernix K1) (protein)
chain 1: MYLTREEERILAGEEGEARAKALEVIVKVGEAVGAERLIPIKHAHVSGASYMTIGDAGLRFLARLAESGARFSVPTTVNPVSYDVEEPGAIPMTRLSPRIVKAQSEILKALEAMGADLILTCTPYYTEVPRRVGLREGDSVAWGESSAVAYANSVLGIHTNREGGPLALMAGIAGRTYFYGAHDPEWRKPRVAYRLETPKVLDETEAGVLGEVIATQHRDEHPPLLDAPLGGEAALKEFSAAVGSAGSLAMVHITGVTPGDPGDMIEEVVTMDYGDLARRMEDLAPGFEPDILYVGCPHASIEELRRLYRALSKAGERAGRRTVVSISRSLYLQALREGLVEKLKGLGVRFVRDSCLIVSPFSSGARGVRVATNSYKAYFYLSKKGVEVGLAPIEALPKLVS
chain 2: MEVLRYRSRPIVGGEAEGPAVVIDSLSFYGEVDPETGVTSGGKPLAGRVAAIRRSRGSTVGSYVIYALKENGVAPLAILMERAEPIVIAGCVLAGIPLYDGLPPEFFERVRDGYRVRVHSDGLVEVLGPGQP
notes: N-terminal His6 tag with HRV3C site on large subunit, small subunit untagged; co-expressed in E. coli Rosetta2(DE3); 1:1 heteromeric complex; tag kept for kinetics, cut for EPR and iron assay; Fe-S cluster reconstituted anaerobically
- Km [1]: 18.3 µM
- kcat [1]: 15.2 s⁻¹

B2: Aeropyrum pernix phosphomevalonate dehydratase (ApPMDh) small subunit Ape_2089, untagged (natural protein, UniProt Q9YA49 1-132, looked up)
chain: MEVLRYRSRPIVGGEAEGPAVVIDSLSFYGEVDPETGVTSGGKPLAGRVAAIRRSRGSTVGSYVIYALKENGVAPLAILMERAEPIVIAGCVLAGIPLYDGLPPEFFERVRDGYRVRVHSDGLVEVLGPGQP
notes: small subunit Ape_2089 of phosphomevalonate dehydratase (type IIb aconitase X), Aeropyrum pernix; also called tag-free Ape_2089; small subunit of ApPMDh; source: E. coli Rosetta2 (DE3), co-expressed from pET-HisApPMDh (and expressed alone from pET-ApPMDh-S); heat-treated cell extract
- stoichiometry N [2]: 1 small subunit per large subunit
- stoichiometry N [3]: ~1 small subunit per large subunit
